# Measured values: article PMC9881204, “Robust Covalent Aptamer Strategy Enables Sensitive Detection and Enhanced Inhibition of SARS-CoV-2 Proteins”
# B1: B15 (ssDNA)
# DNA: GCTGGATGTTCATGCTGGCAAAATTCCTTAGGGGCACCGTTACTTTGACACATCCAGCTTTTTTTT
# B2: NHS-B15 (ssDNA)
# DNA: B1 DNA
# modifications: 5' NH2 conjugated to disuccinimidyl suberate (NHS ester)
# B3: B61 (ssDNA)
# DNA: GCTGGATGTTGACCTTTACAGATCGGATTCTGTGGGGCGTTAAACTGACACATCCAGCTTTTTTTT
# B4: NHS-B61 (ssDNA)
# DNA: B3 DNA
# modifications: 5' NH2 conjugated to disuccinimidyl suberate (NHS ester)
# How the values were obtained:
# [1] = target: T1, SARS-CoV-2 nucleocapsid protein (NP) (SARS-CoV-2, UniProt P0DTC9 1-419); assay: SPR; Kd value only in Fig 3a; about 10-fold weaker than antibodies; SPR: PBS + 5 mM MgCl2, 300 mM NaCl, 400 nM BLib, 2 ug/mL salmon sperm DNA, 25 C; flow cytometry in binding buffer, RT; neutralization in 10% FBS, 37 C; cross-linking in PBS pH 7.4 (SI: HEPES), RT; conditions: protein: commercial; tags: His; chain copies: 2; label: 3' biotin
# [2] = target: T1, SARS-CoV-2 nucleocapsid protein (NP); assay: SPR; value only in Fig 3a; covalent; SPR: PBS + 5 mM MgCl2, 300 mM NaCl, 400 nM BLib, 2 ug/mL salmon sperm DNA, 25 C; flow cytometry in binding buffer, RT; neutralization in 10% FBS, 37 C; cross-linking in PBS pH 7.4 (SI: HEPES), RT; conditions: protein: commercial; tags: His; chain copies: 2; label: 3' biotin
# [3] = target: T2, SARS-CoV-2 spike RBD, wild type (SARS-CoV-2 (wild type), UniProt P0DTC2 319-541); assay: flow cytometry, RBD-coated Ni beads; room temperature; apparent (covalent cross-link); SPR: PBS + 5 mM MgCl2, 300 mM NaCl, 400 nM BLib, 2 ug/mL salmon sperm DNA, 25 C; flow cytometry in binding buffer, RT; neutralization in 10% FBS, 37 C; cross-linking in PBS pH 7.4 (SI: HEPES), RT; conditions: protein: commercial
# [4] = target: T2, SARS-CoV-2 spike RBD, wild type; assay: competition with ACE2-coated beads, flow cytometry; 10% FBS, 37 C; SPR: PBS + 5 mM MgCl2, 300 mM NaCl, 400 nM BLib, 2 ug/mL salmon sperm DNA, 25 C; flow cytometry in binding buffer, RT; neutralization in 10% FBS, 37 C; cross-linking in PBS pH 7.4 (SI: HEPES), RT; conditions: protein: commercial
# [5] = target: T2, SARS-CoV-2 spike RBD, wild type; assay: flow cytometry, RBD-coated Ni beads; room temperature; SPR: PBS + 5 mM MgCl2, 300 mM NaCl, 400 nM BLib, 2 ug/mL salmon sperm DNA, 25 C; flow cytometry in binding buffer, RT; neutralization in 10% FBS, 37 C; cross-linking in PBS pH 7.4 (SI: HEPES), RT; conditions: protein: commercial
Binder,binding result [1],binding result [2],also measured
B1,binds,–,–
B2,–,binds,–
B3,binds,–,–
B4,–,binds,–
"ATTACCGATGGCTTGTTTGTAATGTAGGGTTCCGTCGGAT (ssDNA, 5' NH2 conjugated to disuccinimidyl suberate (NHS ester)) [NHS-RApt (CRApt)]",–,–,Kd [3]: 0.24 nM; IC50 [4]: 0.42 nM
ATTACCGATGGCTTGTTTGTAATGTAGGGTTCCGTCGGAT (ssDNA) [RApt],–,–,Kd [5]: 5.91 nM
